In article PMC8211825, “Molecular mechanism of calcium induced trimerization of C1q-like domain of otolin-1 from human and zebrafish” (Scientific Reports, 2021):
Residue numbers refer to the chain shown, from its start. Names and notes keep the numbering of the source. Values joined by “and” are separate entries in the source; they are usually repeats but may differ in a detail not shown here. Identical values can stand only once.

Molecular target: the molecule itself
Assay: AUC; sedimentation velocity, c(s) analysis in SEDFIT; 10 mM CaCl2; 10 mM HEPES pH 7.0, 500 mM NaCl, 5% glycerol; 20 °C, 50,000 rpm; protein about 0.1, 0.25 and 0.5 mg/ml; self-association of the gC1q domain into trimers

B1: C1q-like domain of otolin-1 from zebrafish (domain or fragment)
chain: not shown
notes: gC1q (C1q-like) domain of zebrafish otolin-1, UniProt A5PN28; printed monomer MW 17.1 kDa; Subcloned in pQE-80 L; also called dOtolC1q; native dOtolC1q
- stoichiometry N: 2 and 3

B2: C1q-like domain of otolin-1 from human (domain or fragment, UniProt A6NHN0 338-473, looked up)
chain: ARVPRSAFSAGLSKPFPPPNIPIKFEKILYNDQGNYSPVTGKFNCSIPGTYVFSYHITVRGRPARISLVAQNKKQFKSRETLYGQEIDQASLLVILKLSAGDQVWLEVSKDWNGVYVSAEDDSIFTGFLLYPEETS
notes: gC1q (C1q-like) domain of human otolin-1, UniProt A6NHN0; printed monomer MW 17.0 kDa; Subcloned in pQE-80 L; The tag is known only from TALON purification and a 6xHis Western blot; also called hOtolC1q; native hOtolC1q
- stoichiometry N: 3

B3: hOtolC1q E470A (domain or fragment, human, UniProt A6NHN0 338-473, looked up)
chain: B2 chain with E133A
notes: gC1q (C1q-like) domain of human otolin-1, UniProt A6NHN0, natural SNP variant E470A (rs3921595); also called E470A variant; natural variant hOtolC1q E470A; source: 0.1% NP40 substitute added to the cell suspension
- stoichiometry N: 3
